T1: ScoCas9 (human codon-optimized) (Streptococcus constellatus)
T1 chain: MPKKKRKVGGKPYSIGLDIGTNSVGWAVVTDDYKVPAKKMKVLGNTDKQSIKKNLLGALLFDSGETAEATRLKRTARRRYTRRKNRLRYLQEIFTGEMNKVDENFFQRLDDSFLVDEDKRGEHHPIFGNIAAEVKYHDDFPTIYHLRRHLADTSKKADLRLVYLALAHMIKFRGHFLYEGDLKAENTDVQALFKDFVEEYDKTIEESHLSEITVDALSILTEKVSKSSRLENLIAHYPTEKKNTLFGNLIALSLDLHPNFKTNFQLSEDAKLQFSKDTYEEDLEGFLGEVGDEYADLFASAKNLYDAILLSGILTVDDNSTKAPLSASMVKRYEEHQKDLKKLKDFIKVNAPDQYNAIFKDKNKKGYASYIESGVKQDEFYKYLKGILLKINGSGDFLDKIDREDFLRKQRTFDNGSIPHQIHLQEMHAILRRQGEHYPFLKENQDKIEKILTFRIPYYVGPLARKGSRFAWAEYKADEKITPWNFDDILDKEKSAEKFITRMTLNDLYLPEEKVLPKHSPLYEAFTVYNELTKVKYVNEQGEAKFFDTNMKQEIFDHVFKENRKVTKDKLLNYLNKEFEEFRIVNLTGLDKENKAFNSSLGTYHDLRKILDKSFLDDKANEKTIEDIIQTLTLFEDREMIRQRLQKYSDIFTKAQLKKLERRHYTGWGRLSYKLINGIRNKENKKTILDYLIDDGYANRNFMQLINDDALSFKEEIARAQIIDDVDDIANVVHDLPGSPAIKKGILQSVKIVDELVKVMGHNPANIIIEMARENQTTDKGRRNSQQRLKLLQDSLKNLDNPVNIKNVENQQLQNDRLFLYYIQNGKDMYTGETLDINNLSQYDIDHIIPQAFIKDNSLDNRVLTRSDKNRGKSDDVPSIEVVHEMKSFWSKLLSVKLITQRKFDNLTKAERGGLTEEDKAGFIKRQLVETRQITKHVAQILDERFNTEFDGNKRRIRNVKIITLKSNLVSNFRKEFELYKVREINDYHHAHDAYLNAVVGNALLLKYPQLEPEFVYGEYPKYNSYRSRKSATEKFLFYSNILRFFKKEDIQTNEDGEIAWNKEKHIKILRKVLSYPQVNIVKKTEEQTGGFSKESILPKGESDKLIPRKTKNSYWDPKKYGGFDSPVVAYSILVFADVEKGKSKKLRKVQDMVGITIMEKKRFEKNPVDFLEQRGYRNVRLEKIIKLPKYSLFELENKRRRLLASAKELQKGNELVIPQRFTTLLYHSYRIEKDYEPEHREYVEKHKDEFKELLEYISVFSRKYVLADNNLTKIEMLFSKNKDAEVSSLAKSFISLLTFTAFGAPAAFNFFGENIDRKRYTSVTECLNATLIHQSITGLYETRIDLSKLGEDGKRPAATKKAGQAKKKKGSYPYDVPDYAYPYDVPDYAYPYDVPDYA

B1: Sco guide 9 sgRNA ; guide 9 site (ssRNA ; dsDNA)
RNA: GUUGAAGAUGAAGCCCAGAGGUUUUAGAGCUGUGCUGUUUAAACAACACAGCAAGUUAAAAUAAGGCUUUGUCCGUACUCAAGCUUGCAAAAGCGUGCACCGAUUCGGUGCU
DNA 1: GTTGAAGATGAAGCCCAGAGCGG
DNA 2: CCGCTCTGGGCTTCATCTTCAAC
B2: Sco guide 2 sgRNA ; guide 2 site (ssRNA ; dsDNA)
RNA: GAAACAAUGAUAACAAGACCGUUUUAGAGCUGUGCUGUUUAAACAACACAGCAAGUUAAAAUAAGGCUUUGUCCGUACUCAAGCUUGCAAAAGCGUGCACCGAUUCGGUGCU
DNA 1: GAAACAATGATAACAAGACCTGG
DNA 2: CCAGGTCTTGTTATCATTGTTTC
B3: Sco guide 11 sgRNA ; guide 11 site (ssRNA ; dsDNA)
RNA: UGCUGCACACAGCAGGCCUUGUUUUAGAGCUGUGCUGUUUAAACAACACAGCAAGUUAAAAUAAGGCUUUGUCCGUACUCAAGCUUGCAAAAGCGUGCACCGAUUCGGUGCU
DNA 1: TGCTGCACACAGCAGGCCTTTGG
DNA 2: CCAAAGGCCTGCTGTGTGCAGCA

Biological target: T1, ScoCas9 (human codon-optimized)
Assay: cell_activity; PAM NGG; HEK293T
Conditions: tags: N-terminal and C-terminal NLS, 3xHA
Description: HEK293T cells were plated in a 96-well plate. Cells were transfected with expression vectors containing Cas9 and guide RNAs (Table 10), 24 hours after plating. Cells were harvested 72 hours post-transfection and total DNA was extracted.

Row | Binder | activity
1 | B1 | > 30 % indel
2 | B2 | > 30 % indel
3 | B3 | ~2 % indel
